In patent US20230190810A1 (FRED HUTCHINSON CANCER CENTER, published 2023):
Each block holds one binder with its values, some of them ahead of it.

How the values were obtained:
[1] = biological target: T1, purified extracellular domain of human CD33^FL with C-terminal His and Avi tags (human, UniProt P20138 18-259); test: SPR (Biacore); column 'CD33FL Biacore kD (nM)'
T1 construct: also called CD33^FL ectodomain; CD33^FL antigen; not shown: C-terminal His and Avi tags

[2] = biological target: T2, purified extracellular domain of human CD33^ΔE2 with C-terminal His and Avi tags (human, UniProt P20138 18-259); test: SPR (Carterra), antibody or hybridoma supernatant captured on a protein A/G lawn, CD33ΔE2 antigen in solution
T2 construct: extracellular domain; also called CD33^ΔE2 ectodomain; not shown: C-terminal His and Avi tags
Description: (§1) FIG. 8. A kinetic profile was established from purified anti-CD33 antibodies and hybridoma supernatants by use of surface plasmon resonance technology (SPR) from the Carterra instrument. SPR is a great way to estimate the kinetic rate constants of binding interactions, of which can fit to a 1:1 Langmuir binding model to determine the on-rate (Kₒₙ) and off-rate (Koff). Both of these rate parameters allow for the calculation of the dissociation rate constant (Kd), referred to as binding affinity. The antibody clones were captured as an array on a protein A/G lawn, which was immobilized to a HC30M chip. The first kinetic experiment used a CD33^FL antigen which started at a concentration of 2 μM preceding a 4-fold titration to 2 nM. Following 10 HBSTE buffer blanks, 6 injections from low to high concentrations were subsequently flowed over the array to assess kinetics of each clone printed to the array, 1-min baseline, 5-min association, 10-min dissociation. The chip was then regenerated with 0.85% phosphoric acid pH 1.7 for a fresh reprint of the same array of clones to the protein A/G lawn, in case any lingering antigen stayed bound to the array preventing an interaction with the 2nd antigen of interest, of which CD33^ΔE2 flowed over the array of antibodies. […]

[3] = biological target: T1, purified extracellular domain of human …; test: SPR (Carterra), antibody captured on a protein A/G lawn, CD33FL antigen in solution; column 'CD33FL kD (nM), 1 µg/mL' (purified antibody)
Description: (§2) FIG. 8. A kinetic profile was established from purified anti-CD33 antibodies and hybridoma supernatants by use of surface plasmon resonance technology (SPR) from the Carterra instrument. SPR is a great way to estimate the kinetic rate constants of binding interactions, of which can fit to a 1:1 Langmuir binding model to determine the on-rate (Kₒₙ) and off-rate (Koff). Both of these rate parameters allow for the calculation of the dissociation rate constant (Kd), referred to as binding affinity. The antibody clones were captured as an array on a protein A/G lawn, which was immobilized to a HC30M chip. The first kinetic experiment used a CD33^FL antigen which started at a concentration of 2 μM preceding a 4-fold titration to 2 nM. Following 10 HBSTE buffer blanks, 6 injections from low to high concentrations were subsequently flowed over the array to assess kinetics of each clone printed to the array, 1-min baseline, 5-min association, 10-min dissociation. The chip was then regenerated with 0.85% phosphoric acid pH 1.7 for a fresh reprint of the same array of clones to the protein A/G lawn, in case any lingering antigen stayed bound to the array preventing an interaction with the 2nd antigen of interest, of which CD33^ΔE2 flowed over the array of antibodies. Carterra kinetic software was used to process the data to fit the raw data to kinetic curves for each concentration of antigen injected over the array.

[4] = biological target: T1, purified extracellular domain of human …; test: SPR (Carterra), antibody captured on a protein A/G lawn, CD33FL antigen in solution; column 'CD33FL kD (nM), 4 µg/mL' (purified antibody)
Description: as §2

[5] = biological target: T3, human full-length CD33 (CD33^FL) on cells (human, UniProt P20138 18-364); test: flow cytometry, murine antibody, control = secondary antibody only; REH cells expressing CD33FL
T3 construct: Used for engineered REH/ML-1 sublines overexpressing CD33^FL and for endogenous CD33 on parental AML cell lines; also called Siglec-3

[6] = biological target: T4, artificial CD33 with deletion of exons 3 and 4, lacking the C2-set domain (CD33^ΔE3-4), on cells (human, UniProt P20138 1-364); test: flow cytometry on engineered cells
T4 construct: it probably still carries the CD33 signal peptide (aa 1-17), which is not part of the protein on cells; also called CD33 V-set construct (exon 3 and 4 deleted)

[7] = biological target: T1, purified extracellular domain of human …; test: SPR, Biacore T100, 25 C; 1H7 captured on anti-mouse IgG, purified CD33^FL ectodomain as analyte; target CD33^FL (full-length ectodomain)
Procedure: (§3) FIG. 9. SPR assessment of purified extracellular domains from CD33^FL or CD33^ΔE2 binding to captured 1H7. Black lines are data and gray lines are the model fits. SPR experiments were performed at 25° C. on a Biacore T100 (Cytiva) using a running buffer of 10 mM HEPES, pH 7.4, 150 mM NaCl, 3 mM EDTA, 0.05% surfactant P20 with 0.1 mg/mL bovine serum albumin. Rabbit anti-mouse IgG was amine coupled to 2 flow cells of a Series S CM5 chip (7300 RUs). 1H7 at 0.2 μg/mL was injected at 10 μL/min over 1 flow cell of immobilized anti-mouse IgG for either 2 mins or 5 mins to capture 94 or 163 RUs of antibody for the CD33^FL and CD33^ΔE2 binding experiments, respectively. Purified ectodomains for CD33^FL and CD33^ΔE2 (engineered with C-terminal His and Avi tags) were run as concentration series at 35 μL/min over both the captured antibody and anti-mouse IgG alone (reference) surfaces. CD33^FL was injected for 10 mins and allowed to dissociate for 15 mins. CD33^ΔE2 was injected for 7 mins and dissociated for 7 mins. Ectodomain concentrations (serial 2-fold dilutions starting at 75 nM for CD33^FL and 2 μM for CD33^ΔE2) were run in duplicate, randomized, and included a buffer blank every 4th injection. The CM5 chip was regenerated with 10 mM glycine, pH 1.7 for 3 minutes at 20 μL/min and 1H7 recaptured prior to each CD33 injection. Data was double referenced and analyzed in BiaEval 2.0.4.

[8] = biological target: T2, purified extracellular domain of human …; test: SPR, Biacore T100, 25 C; 1H7 captured on anti-mouse IgG, purified CD33^ΔE2 ectodomain as analyte; target CD33^ΔE2 (lacking V-set domain)
Procedure: as §3

[9] = biological target: T2, purified extracellular domain of human …; test: SPR (Carterra), antibody captured on a protein A/G lawn, CD33ΔE2 antigen in solution; column 'CD33ΔE2 kD (nM), 1 µg/mL' (purified antibody)
Description: as §1

[10] = biological target: T2, purified extracellular domain of human …; test: SPR (Carterra), antibody captured on a protein A/G lawn, CD33ΔE2 antigen in solution; column 'CD33ΔE2 kD (nM), 4 µg/mL' (purified antibody)
Description: as §1

[11] = biological target: T3, human full-length CD33 (CD33^FL) on …; test: flow cytometry, murine antibody, control = secondary antibody only; ML-1 parental cells (endogenous CD33) and REH cells expressing CD33FL
[12] = biological target: T3, human full-length CD33 (CD33^FL) on …; test: flow cytometry, murine antibody, control = secondary antibody only; REH cells expressing CD33FL; remark: listed apart in the source

T1 sequence (P20138 18-259): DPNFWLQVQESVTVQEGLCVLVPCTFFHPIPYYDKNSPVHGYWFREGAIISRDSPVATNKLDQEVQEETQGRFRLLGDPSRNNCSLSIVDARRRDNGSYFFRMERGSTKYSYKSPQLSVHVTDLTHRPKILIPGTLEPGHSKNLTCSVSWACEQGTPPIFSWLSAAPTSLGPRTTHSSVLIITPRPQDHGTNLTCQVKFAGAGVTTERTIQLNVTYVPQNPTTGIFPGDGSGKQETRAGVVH
T2 sequence (P20138 140-259 limits assumed, stated change not applied): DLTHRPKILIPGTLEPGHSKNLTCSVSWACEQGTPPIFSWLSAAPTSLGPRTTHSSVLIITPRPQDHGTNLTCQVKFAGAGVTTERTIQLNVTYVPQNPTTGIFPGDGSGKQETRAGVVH
T3 sequence (P20138 18-364): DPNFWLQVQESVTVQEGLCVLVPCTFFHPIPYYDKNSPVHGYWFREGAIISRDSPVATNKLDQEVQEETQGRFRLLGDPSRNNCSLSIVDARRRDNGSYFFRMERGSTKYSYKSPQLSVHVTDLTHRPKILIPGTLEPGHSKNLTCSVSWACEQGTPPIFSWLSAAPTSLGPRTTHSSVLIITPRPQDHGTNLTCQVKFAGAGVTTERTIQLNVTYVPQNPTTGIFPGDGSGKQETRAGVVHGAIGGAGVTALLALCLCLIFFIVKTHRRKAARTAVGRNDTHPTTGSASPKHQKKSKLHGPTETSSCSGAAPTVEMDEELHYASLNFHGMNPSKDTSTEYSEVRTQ
T4 sequence (P20138 other isoform, or with tags, fused parts or gaps mutant limits assumed): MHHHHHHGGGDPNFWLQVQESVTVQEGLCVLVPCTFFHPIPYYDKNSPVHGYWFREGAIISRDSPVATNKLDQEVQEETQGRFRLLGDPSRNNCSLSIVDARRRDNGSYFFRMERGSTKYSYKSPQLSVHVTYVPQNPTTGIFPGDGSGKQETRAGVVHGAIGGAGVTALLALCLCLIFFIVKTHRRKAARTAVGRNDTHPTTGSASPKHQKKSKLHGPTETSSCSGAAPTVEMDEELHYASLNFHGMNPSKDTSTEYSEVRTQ

Kd [1]: 8 nM | binding result [2]: no binding | Kd [3]: 11 nM | Kd [4]: 6.1 nM
B1: 8F5 antibody (murine CD33^V-set antibody) (antibody, V domains shown)
VH: EVKLVESGGGLVQPGGSLKLSCAASGFTFSDFYMYWVRQTPEKRLEWVAFISNAGVTTYYPDTVEGRFTISRDNAKNTLYLQMSRLMSEDTAMYYCTKSDYDGAWFPYWGQGTLVTVS
VL: DIVMSQSPSSLPVSVGEKVTLSCKSSQSLLYSRNQYNFLAWYQQRPGQSPKLLIYWASTRESGVPDRFTGSGSGTDFTLTISSVKAEDLAVYYCQQYYSYPYTFGGGTKLEIK
notes: Murine hybridoma antibody

binding result [5]: binds
B2: 2D5 antibody (murine CD33^PAN antibody) (antibody, V domains shown)
VH: QVQLQQSGAELVRPGASVTLSCKASGYTFTDYDMHWVKQTPVHGLEWIGAIDPETGGTAYNQNFKGKAILTVDKSSRIAYMELRSLTSEDSAVFYCTSDYDYFGVWGTGTTVTVSS
VL: DIVMTQSQKFMSTSVGDRVSVTCKASQNVGTNVVWYHKKPGQSPKGLIYSASDRYSGVPDRFTGSGSGTDFTLTINNVQSEDLAEYFCQQYNIYPYTFGGGTKLEIK
notes: Murine hybridoma antibody

binding result [6]: no binding | Kd [7]: 5.35 nM | Kd [8]: 280 nM | Kd [3]: 0.674 nM | Kd [4]: 4.2 nM | Kd [9]: 5.3 nM | Kd [10]: 7.6 nM
B3: 1H7 antibody (murine CD33^PAN antibody, hybridoma clone and recombinant 1H7) (antibody, V domains shown)
VH: QVQLQQSGAELVKPGASVKISCKASGYAFSNYWMNWVKQRPGKGLEWIGQINPGDGDTNYNGKFKGKATLTADKSSSTAYMQLSSLTSEDSAVYFCAREDRDYFDYWGQGTTLTVSS
VL: DIQMTQTTSSLSASLGDRVTISCRASQDINYYLNWYQQKPDGTVKLLIYYSSRLHSGVPSRFSGSGSGTDFSLTISNLEQEDIATYFCQQDDALPYTFGGGTKLEIK
notes: Murine antibody (captured on anti-mouse IgG in the Biacore run); both are treated as one molecule; also called clone 1H7

binding result [11]: binds
B4: 9G2 antibody (murine CD33^PAN antibody) (antibody, V domains shown)
VH: EVKLVESEGGLVQPGSSMKLSCTASGFTFSDYYMSWVRQVPEKGLEWVASINYDGGSTYYLDSLKSRFIISRDNTKNILYLQMSSLKSEDTATYYCARDRGDGDYFDYWGQGTTLTVSS
VL: DIQMTQTTSSLSASLGDRVTISCKTSQDIYNYLNWYQQKPDGTVKLLIYYTSRLHSGVPSRFSGGGSGTDYSLTISNLEQEDIATYFCQQGDTLPWTFGGGTKLEIK
notes: Murine hybridoma antibody

binding result [11]: binds
B5: 6H9 antibody (murine CD33^PAN antibody) (antibody, V domains shown)
VH: EVMLVESGGGLVKPGGSLKLSCAASGFTFSSYTMSWVRQTPEKRLEWVATISGDGGNTYYSDSVKGRFTISRDNAKNTLYLQMSSLRSEDTALYYCARQGTGTDYFDYWGQGTTLTVS
VL: DIQMTQTTSSLSASLGDRVTISCRASQDINIYLNWYQQKPDGTVKLLIYYTSRLHSGVPSRFSGSGSGTDYSLTISNLEQEDIATYFCQQGDTLPWTFGGGTKLEIK
notes: Murine hybridoma antibody

Kd [1]: 0.122 nM | binding result [2]: no binding | Kd [3]: 2.3 nM | Kd [4]: 1.1 nM
B6: 5D12 antibody (murine CD33^V-set antibody) (antibody, V domains shown)
VH: QVQLQQSGAEVVKPGASVKISCRASGYAFSNYWMNWVKQRPGKGLEWIGQIYPGNFNTDYNGQFKGKATLTVDKSSNTAYMQLSSLTSEDSAVYFCARFFDFGAYFTLDYWGQGTSVTVSS
VL: DIKMTQSPSSIYASLGERVTINCKASQDIKSYLSWYQQKPWKSPKTLIYYATTLADGVPSRFSGSGSGQDYSLTISSLESDDTATYYCLHHGESPWTFGEGTKLEIK
notes: Murine hybridoma antibody

binding result [12]: no binding
B7: 13E11 (antibody, V domains shown)
VH: KVQLQQSGAELVKPGASVKLSCKASGYTFTDYTLHWLKQRSGQGLEWIGWFYPTSGSINYNERFKDKATLTADKSSSTVYMELSRLTSVDSAVYFCARHKFGFDYWGQGTTLTVSS
VL: DIVLTQSPVSLAVSLGQRATISCKASHGVEYAGAHYMNWYQQKPGQPPKLLIYAASNLGSGIPPRFSGSGSGTDFTLNIHPVEEEDSATYYCQQSNEDPRTFGGGTKLEIK
notes: also called 13E11 antibody; murine CD33^C2-set-specific antibody, clone 13E11
